Blank lines part the entries; values can stand above or below the binder they belong to. Square brackets hold non-standard residues; d marks the D form. Aib = CC(C)(N)C(=O)O
How the values were obtained:
[1] = molecular target: human glucagon-like peptide 1 receptor (GLP-1R) (human, UniProt P43220 24-463); test: cell-based or functional assay
[2] = molecular target: T1, human GLP-2 receptor (hGLP2-R) (human, UniProt O95838 1-553); test: cell-based or functional assay
T1 sequence (looked up): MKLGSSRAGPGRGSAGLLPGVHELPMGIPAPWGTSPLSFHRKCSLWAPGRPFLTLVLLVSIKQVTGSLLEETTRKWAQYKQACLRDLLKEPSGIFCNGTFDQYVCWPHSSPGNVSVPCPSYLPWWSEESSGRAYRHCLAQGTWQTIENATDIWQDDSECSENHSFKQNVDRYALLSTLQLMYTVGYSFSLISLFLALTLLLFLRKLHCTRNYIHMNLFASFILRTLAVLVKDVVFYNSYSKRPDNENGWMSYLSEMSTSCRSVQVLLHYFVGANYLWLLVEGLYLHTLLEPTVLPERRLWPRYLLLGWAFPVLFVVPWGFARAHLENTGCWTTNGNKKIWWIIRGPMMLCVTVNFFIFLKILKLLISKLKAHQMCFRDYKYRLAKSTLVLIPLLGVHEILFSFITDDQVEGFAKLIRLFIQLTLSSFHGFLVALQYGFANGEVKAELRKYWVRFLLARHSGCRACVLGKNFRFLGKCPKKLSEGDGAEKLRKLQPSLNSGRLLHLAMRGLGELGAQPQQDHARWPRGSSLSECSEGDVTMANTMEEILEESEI

B3: Compound 15 (peptide)
peptide: H-H[Aib]EGTFTSELATILDEQAARDFIAWLIQHKITD-OH
SMILES: CC[C@H](C)[C@H](NC(=O)[C@H](Cc1ccccc1)NC(=O)[C@H](CC(=O)O)NC(=O)[C@H](CCCNC(=N)N)NC(=O)[C@H](C)NC(=O)[C@H](C)NC(=O)[C@H](CCC(N)=O)NC(=O)[C@H](CCC(=O)O)NC(=O)[C@H](CC(=O)O)NC(=O)[C@H](CC(C)C)NC(=O)[C@@H](NC(=O)[C@@H](NC(=O)[C@H](C)NC(=O)[C@H](CC(C)C)NC(=O)[C@H](CCC(=O)O)NC(=O)[C@H](CO)NC(=O)[C@@H](NC(=O)[C@H](Cc1ccccc1)NC(=O)[C@@H](NC(=O)CNC(=O)[C@H](CCC(=O)O)NC(=O)C(C)(C)NC(=O)[C@@H](N)Cc1c[nH]cn1)[C@@H](C)O)[C@@H](C)O)[C@@H](C)O)[C@@H](C)CC)C(=O)N[C@@H](C)C(=O)N[C@@H](Cc1c[nH]c2ccccc12)C(=O)N[C@@H](CC(C)C)C(=O)N[C@H](C(=O)N[C@@H](CCC(N)=O)C(=O)N[C@@H](Cc1c[nH]cn1)C(=O)N[C@@H](CCCCN)C(=O)N[C@H](C(=O)N[C@H](C(=O)N[C@@H](CC(=O)O)C(=O)O)[C@@H](C)O)[C@@H](C)CC)[C@@H](C)CC
EC50 GLP-1 (nM); cAMP AlphaScreen, HEK293 cells expressing human GLP-1R [1]: 0.005 nM
EC50 GLP-2 (nM); cAMP AlphaScreen, HEK293 cells expressing human GLP-2R [2]: 0.038 nM

B4: Compound 13 (peptide)
peptide: H-H[Aib]EGTFTSELATILDEQAARDFIAWLQAHKITD-OH
SMILES: CC[C@H](C)[C@H](NC(=O)[C@H](Cc1ccccc1)NC(=O)[C@H](CC(=O)O)NC(=O)[C@H](CCCNC(=N)N)NC(=O)[C@H](C)NC(=O)[C@H](C)NC(=O)[C@H](CCC(N)=O)NC(=O)[C@H](CCC(=O)O)NC(=O)[C@H](CC(=O)O)NC(=O)[C@H](CC(C)C)NC(=O)[C@@H](NC(=O)[C@@H](NC(=O)[C@H](C)NC(=O)[C@H](CC(C)C)NC(=O)[C@H](CCC(=O)O)NC(=O)[C@H](CO)NC(=O)[C@@H](NC(=O)[C@H](Cc1ccccc1)NC(=O)[C@@H](NC(=O)CNC(=O)[C@H](CCC(=O)O)NC(=O)C(C)(C)NC(=O)[C@@H](N)Cc1c[nH]cn1)[C@@H](C)O)[C@@H](C)O)[C@@H](C)O)[C@@H](C)CC)C(=O)N[C@@H](C)C(=O)N[C@@H](Cc1c[nH]c2ccccc12)C(=O)N[C@@H](CC(C)C)C(=O)N[C@@H](CCC(N)=O)C(=O)N[C@@H](C)C(=O)N[C@@H](Cc1c[nH]cn1)C(=O)N[C@@H](CCCCN)C(=O)N[C@H](C(=O)N[C@H](C(=O)N[C@@H](CC(=O)O)C(=O)O)[C@@H](C)O)[C@@H](C)CC
EC50 GLP-1 (nM); cAMP AlphaScreen, HEK293 cells expressing human GLP-1R [1]: 0.016 nM
EC50 GLP-2 (nM); cAMP AlphaScreen, HEK293 cells expressing human GLP-2R [2]: 0.083 nM

B7: Compound 11 (peptide)
peptide: H-H[Aib]EGTFTSELATILDGKAARDFIAWLIAHKITD-OH
SMILES: CC[C@H](C)[C@H](NC(=O)[C@H](CC(C)C)NC(=O)[C@H](Cc1c[nH]c2ccccc12)NC(=O)[C@H](C)NC(=O)[C@@H](NC(=O)[C@H](Cc1ccccc1)NC(=O)[C@H](CC(=O)O)NC(=O)[C@H](CCCNC(=N)N)NC(=O)[C@H](C)NC(=O)[C@H](C)NC(=O)[C@H](CCCCN)NC(=O)CNC(=O)[C@H](CC(=O)O)NC(=O)[C@H](CC(C)C)NC(=O)[C@@H](NC(=O)[C@@H](NC(=O)[C@H](C)NC(=O)[C@H](CC(C)C)NC(=O)[C@H](CCC(=O)O)NC(=O)[C@H](CO)NC(=O)[C@@H](NC(=O)[C@H](Cc1ccccc1)NC(=O)[C@@H](NC(=O)CNC(=O)[C@H](CCC(=O)O)NC(=O)C(C)(C)NC(=O)[C@@H](N)Cc1c[nH]cn1)[C@@H](C)O)[C@@H](C)O)[C@@H](C)O)[C@@H](C)CC)[C@@H](C)CC)C(=O)N[C@@H](C)C(=O)N[C@@H](Cc1c[nH]cn1)C(=O)N[C@@H](CCCCN)C(=O)N[C@H](C(=O)N[C@H](C(=O)N[C@@H](CC(=O)O)C(=O)O)[C@@H](C)O)[C@@H](C)CC
EC50 GLP-1 (nM); cAMP AlphaScreen, HEK293 cells expressing human GLP-1R [1]: 0.011 nM
EC50 GLP-2 (nM); cAMP AlphaScreen, HEK293 cells expressing human GLP-2R [2]: 0.085 nM

Next, values leading:

EC50 GLP-1 (nM); cAMP AlphaScreen, HEK293 cells expressing human GLP-1R [1]: 0.055 nM
EC50 GLP-2 (nM); cAMP AlphaScreen, HEK293 cells expressing human GLP-2R [2]: 0.076 nM
B1: Compound 12 (peptide)
peptide: H-H[Aib]EGTFTSELATILDEQAARDFIAWLHAHKITD-OH
SMILES: CC[C@H](C)[C@H](NC(=O)[C@H](Cc1ccccc1)NC(=O)[C@H](CC(=O)O)NC(=O)[C@H](CCCNC(=N)N)NC(=O)[C@H](C)NC(=O)[C@H](C)NC(=O)[C@H](CCC(N)=O)NC(=O)[C@H](CCC(=O)O)NC(=O)[C@H](CC(=O)O)NC(=O)[C@H](CC(C)C)NC(=O)[C@@H](NC(=O)[C@@H](NC(=O)[C@H](C)NC(=O)[C@H](CC(C)C)NC(=O)[C@H](CCC(=O)O)NC(=O)[C@H](CO)NC(=O)[C@@H](NC(=O)[C@H](Cc1ccccc1)NC(=O)[C@@H](NC(=O)CNC(=O)[C@H](CCC(=O)O)NC(=O)C(C)(C)NC(=O)[C@@H](N)Cc1c[nH]cn1)[C@@H](C)O)[C@@H](C)O)[C@@H](C)O)[C@@H](C)CC)C(=O)N[C@@H](C)C(=O)N[C@@H](Cc1c[nH]c2ccccc12)C(=O)N[C@@H](CC(C)C)C(=O)N[C@@H](Cc1c[nH]cn1)C(=O)N[C@@H](C)C(=O)N[C@@H](Cc1c[nH]cn1)C(=O)N[C@@H](CCCCN)C(=O)N[C@H](C(=O)N[C@H](C(=O)N[C@@H](CC(=O)O)C(=O)O)[C@@H](C)O)[C@@H](C)CC

EC50 GLP-1 (nM); cAMP AlphaScreen, HEK293 cells expressing human GLP-1R [1]: 0.005 nM
EC50 GLP-2 (nM); cAMP AlphaScreen, HEK293 cells expressing human GLP-2R [2]: 0.05 nM
B2: Compound 10 (peptide)
peptide: H-H[Aib]EGTFTSELSTILDEQAARDFIAWLIAHKITD-OH
SMILES: CC[C@H](C)[C@H](NC(=O)[C@H](CC(C)C)NC(=O)[C@H](Cc1c[nH]c2ccccc12)NC(=O)[C@H](C)NC(=O)[C@@H](NC(=O)[C@H](Cc1ccccc1)NC(=O)[C@H](CC(=O)O)NC(=O)[C@H](CCCNC(=N)N)NC(=O)[C@H](C)NC(=O)[C@H](C)NC(=O)[C@H](CCC(N)=O)NC(=O)[C@H](CCC(=O)O)NC(=O)[C@H](CC(=O)O)NC(=O)[C@H](CC(C)C)NC(=O)[C@@H](NC(=O)[C@@H](NC(=O)[C@H](CO)NC(=O)[C@H](CC(C)C)NC(=O)[C@H](CCC(=O)O)NC(=O)[C@H](CO)NC(=O)[C@@H](NC(=O)[C@H](Cc1ccccc1)NC(=O)[C@@H](NC(=O)CNC(=O)[C@H](CCC(=O)O)NC(=O)C(C)(C)NC(=O)[C@@H](N)Cc1c[nH]cn1)[C@@H](C)O)[C@@H](C)O)[C@@H](C)O)[C@@H](C)CC)[C@@H](C)CC)C(=O)N[C@@H](C)C(=O)N[C@@H](Cc1c[nH]cn1)C(=O)N[C@@H](CCCCN)C(=O)N[C@H](C(=O)N[C@H](C(=O)N[C@@H](CC(=O)O)C(=O)O)[C@@H](C)O)[C@@H](C)CC

EC50 GLP-1 (nM); cAMP AlphaScreen, HEK293 cells expressing human GLP-1R [1]: 0.021 nM
EC50 GLP-2 (nM); cAMP AlphaScreen, HEK293 cells expressing human GLP-2R [2]: 0.049 nM
B5: Compound 14 (peptide)
peptide: H-H[Aib]EGTFTSELATILDEQAARDFIAWLYAHKITD-OH
SMILES: CC[C@H](C)[C@H](NC(=O)[C@H](Cc1ccccc1)NC(=O)[C@H](CC(=O)O)NC(=O)[C@H](CCCNC(=N)N)NC(=O)[C@H](C)NC(=O)[C@H](C)NC(=O)[C@H](CCC(N)=O)NC(=O)[C@H](CCC(=O)O)NC(=O)[C@H](CC(=O)O)NC(=O)[C@H](CC(C)C)NC(=O)[C@@H](NC(=O)[C@@H](NC(=O)[C@H](C)NC(=O)[C@H](CC(C)C)NC(=O)[C@H](CCC(=O)O)NC(=O)[C@H](CO)NC(=O)[C@@H](NC(=O)[C@H](Cc1ccccc1)NC(=O)[C@@H](NC(=O)CNC(=O)[C@H](CCC(=O)O)NC(=O)C(C)(C)NC(=O)[C@@H](N)Cc1c[nH]cn1)[C@@H](C)O)[C@@H](C)O)[C@@H](C)O)[C@@H](C)CC)C(=O)N[C@@H](C)C(=O)N[C@@H](Cc1c[nH]c2ccccc12)C(=O)N[C@@H](CC(C)C)C(=O)N[C@@H](Cc1ccc(O)cc1)C(=O)N[C@@H](C)C(=O)N[C@@H](Cc1c[nH]cn1)C(=O)N[C@@H](CCCCN)C(=O)N[C@H](C(=O)N[C@H](C(=O)N[C@@H](CC(=O)O)C(=O)O)[C@@H](C)O)[C@@H](C)CC

EC50 GLP-1 (nM); cAMP AlphaScreen, HEK293 cells expressing human GLP-1R [1]: 0.006 nM
EC50 GLP-2 (nM); cAMP AlphaScreen, HEK293 cells expressing human GLP-2R [2]: 0.026 nM
B6: Compound 16 (peptide)
peptide: H-H[Aib]EGTFTSELATILDEQAARDFIAWLIKHKITD-OH
SMILES: CC[C@H](C)[C@H](NC(=O)[C@H](Cc1ccccc1)NC(=O)[C@H](CC(=O)O)NC(=O)[C@H](CCCNC(=N)N)NC(=O)[C@H](C)NC(=O)[C@H](C)NC(=O)[C@H](CCC(N)=O)NC(=O)[C@H](CCC(=O)O)NC(=O)[C@H](CC(=O)O)NC(=O)[C@H](CC(C)C)NC(=O)[C@@H](NC(=O)[C@@H](NC(=O)[C@H](C)NC(=O)[C@H](CC(C)C)NC(=O)[C@H](CCC(=O)O)NC(=O)[C@H](CO)NC(=O)[C@@H](NC(=O)[C@H](Cc1ccccc1)NC(=O)[C@@H](NC(=O)CNC(=O)[C@H](CCC(=O)O)NC(=O)C(C)(C)NC(=O)[C@@H](N)Cc1c[nH]cn1)[C@@H](C)O)[C@@H](C)O)[C@@H](C)O)[C@@H](C)CC)C(=O)N[C@@H](C)C(=O)N[C@@H](Cc1c[nH]c2ccccc12)C(=O)N[C@@H](CC(C)C)C(=O)N[C@H](C(=O)N[C@@H](CCCCN)C(=O)N[C@@H](Cc1c[nH]cn1)C(=O)N[C@@H](CCCCN)C(=O)N[C@H](C(=O)N[C@H](C(=O)N[C@@H](CC(=O)O)C(=O)O)[C@@H](C)O)[C@@H](C)CC)[C@@H](C)CC
